{
  "source": "paper PMC10988774",
  "about": "(Journal of molecular biology, 2023)",
  "binders": {"B1": {"name": "p65 N-terminal domain, NTD (residues 1–109) (domain or fragment, Tetrahymena thermophila, UniProt W7X6T2 1-109, looked up)", "chain": "MDEYLENTNLEELEQECFMEDYQHEDVVEQENHQVDANDIYENQQMNDESQLNQDVKISQQKEQAVEMIEEQQQNNQDKFKQFQDCMAHITELNFKRNYQNLTEQSSSN"}},
  "molecular_target": "T1, p65 La module, LaMod(108–355) (Tetrahymena thermophila, UniProt W7X6T2 108-355)",
  "T1 sequence (looked up)": "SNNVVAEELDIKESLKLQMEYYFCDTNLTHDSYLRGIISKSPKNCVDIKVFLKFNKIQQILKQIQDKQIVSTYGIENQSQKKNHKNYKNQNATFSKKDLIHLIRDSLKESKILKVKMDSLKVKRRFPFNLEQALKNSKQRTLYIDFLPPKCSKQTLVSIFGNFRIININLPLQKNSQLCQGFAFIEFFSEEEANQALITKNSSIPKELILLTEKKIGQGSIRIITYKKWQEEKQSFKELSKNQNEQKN",
  "experiment": "NMR titration",
  "data": [
    {"binder": "B1", "values": [
      {"measurement": "binding result", "result": "binds"}
    ]}
  ]
}
